Patent US20140087995A1 (published 2014)
Numbered stars: 1 amine (or outer) side, 2 acyl side, 3 side chain; on linkers, the order of the positions; unused ones are H or OH. Bridge positions count the residues as written; N and C are the ends. Side chains are listed from the residue outwards. Ends that are not written are not given here. * marks the point of attachment. C20 diacid = O=C(O)CCCCCCCCCCCCCCCCCCC(=O)*; γGlu = O=C(O)[C@H](CCC(=O)[*:2])N[*:1]; AEEA = NCCOCCOCC(=O)O

T1: human calcitonin receptor (human, UniProt P30988 25-474)
T1 sequence (looked up): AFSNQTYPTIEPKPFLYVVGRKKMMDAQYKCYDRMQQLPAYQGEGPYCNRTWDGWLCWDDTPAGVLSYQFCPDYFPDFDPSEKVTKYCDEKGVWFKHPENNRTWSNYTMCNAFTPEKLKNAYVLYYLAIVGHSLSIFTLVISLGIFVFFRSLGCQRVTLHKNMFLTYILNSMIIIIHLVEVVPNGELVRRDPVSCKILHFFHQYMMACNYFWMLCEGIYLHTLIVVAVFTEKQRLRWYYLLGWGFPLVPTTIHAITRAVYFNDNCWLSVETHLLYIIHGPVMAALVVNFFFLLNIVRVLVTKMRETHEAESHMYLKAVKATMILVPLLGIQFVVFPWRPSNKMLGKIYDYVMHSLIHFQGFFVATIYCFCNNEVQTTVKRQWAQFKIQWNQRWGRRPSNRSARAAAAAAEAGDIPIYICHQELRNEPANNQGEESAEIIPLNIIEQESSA


target: T1, human calcitonin receptor; assay: cell-based or functional assay

hCTR funct. EC50 [nM]	Binder
3.12	K([AEEA-γGlu-C20 diacid])CNTATCATQRLANFLRHSSPNFGAIPSSTPVGSHTY-NH2 (disulfide 2-7; N-terminus assumed; SMILES CC[C@H](C)[C@H](NC(=O)[C@H](C)NC(=O)CNC(=O)[C@H](Cc1ccccc1)NC(=O)[C@H](CC(N)=O)NC(=O)[C@@H]1CCCN1C(=O)[C@H](CO)NC(=O)[C@H](CO)NC(=O)[C@H](Cc1c[nH]cn1)NC(=O)[C@H](CCCNC(=N)N)NC(=O)[C@H](CC(C)C)NC(=O)[C@H](Cc1ccccc1)NC(=O)[C@H](CC(N)=O)NC(=O)[C@H](C)NC(=O)[C@H](CC(C)C)NC(=O)[C@H](CCCNC(=N)N)NC(=O)[C@H](CCC(N)=O)NC(=O)[C@@H](NC(=O)[C@H](C)NC(=O)[C@@H]1CSSC[C@H](NC(=O)[C@@H](N)CCCCNC(=O)COCCOCCNC(=O)CC[C@H](NC(=O)CCCCCCCCCCCCCCCCCCC(=O)O)C(=O)O)C(=O)N[C@@H](CC(N)=O)C(=O)N[C@@H]([C@@H](C)O)C(=O)N[C@@H](C)C(=O)N[C@@H]([C@@H](C)O)C(=O)N1)[C@@H](C)O)C(=O)N1CCC[C@H]1C(=O)N[C@@H](CO)C(=O)N[C@@H](CO)C(=O)N[C@H](C(=O)N1CCC[C@H]1C(=O)N[C@H](C(=O)NCC(=O)N[C@@H](CO)C(=O)N[C@@H](Cc1c[nH]cn1)C(=O)N[C@H](C(=O)N[C@@H](Cc1ccc(O)cc1)C(N)=O)[C@@H](C)O)C(C)C)[C@@H](C)O, analogue of human amylin; also called compound 57)
0.932	K([AEEA-γGlu-C20 diacid])CNTATCATQRLAHFLRHSSPNFGAIPSSTNVGPNTY-NH2 (disulfide 2-7; N-terminus assumed; SMILES CC[C@H](C)[C@H](NC(=O)[C@H](C)NC(=O)CNC(=O)[C@H](Cc1ccccc1)NC(=O)[C@H](CC(N)=O)NC(=O)[C@@H]1CCCN1C(=O)[C@H](CO)NC(=O)[C@H](CO)NC(=O)[C@H](Cc1c[nH]cn1)NC(=O)[C@H](CCCNC(=N)N)NC(=O)[C@H](CC(C)C)NC(=O)[C@H](Cc1ccccc1)NC(=O)[C@H](Cc1c[nH]cn1)NC(=O)[C@H](C)NC(=O)[C@H](CC(C)C)NC(=O)[C@H](CCCNC(=N)N)NC(=O)[C@H](CCC(N)=O)NC(=O)[C@@H](NC(=O)[C@H](C)NC(=O)[C@@H]1CSSC[C@H](NC(=O)[C@@H](N)CCCCNC(=O)COCCOCCNC(=O)CC[C@H](NC(=O)CCCCCCCCCCCCCCCCCCC(=O)O)C(=O)O)C(=O)N[C@@H](CC(N)=O)C(=O)N[C@@H]([C@@H](C)O)C(=O)N[C@@H](C)C(=O)N[C@@H]([C@@H](C)O)C(=O)N1)[C@@H](C)O)C(=O)N1CCC[C@H]1C(=O)N[C@@H](CO)C(=O)N[C@@H](CO)C(=O)N[C@H](C(=O)N[C@@H](CC(N)=O)C(=O)N[C@H](C(=O)NCC(=O)N1CCC[C@H]1C(=O)N[C@@H](CC(N)=O)C(=O)N[C@H](C(=O)N[C@@H](Cc1ccc(O)cc1)C(N)=O)[C@@H](C)O)C(C)C)[C@@H](C)O, analogue of human amylin; also called compound 68)
0.554	K([AEEA-γGlu-C20 diacid])CNTATCATQRLAHFLRHSSPNFGAIPSSTPVGSNTY-NH2 (disulfide 2-7; N-terminus assumed; SMILES CC[C@H](C)[C@H](NC(=O)[C@H](C)NC(=O)CNC(=O)[C@H](Cc1ccccc1)NC(=O)[C@H](CC(N)=O)NC(=O)[C@@H]1CCCN1C(=O)[C@H](CO)NC(=O)[C@H](CO)NC(=O)[C@H](Cc1c[nH]cn1)NC(=O)[C@H](CCCNC(=N)N)NC(=O)[C@H](CC(C)C)NC(=O)[C@H](Cc1ccccc1)NC(=O)[C@H](Cc1c[nH]cn1)NC(=O)[C@H](C)NC(=O)[C@H](CC(C)C)NC(=O)[C@H](CCCNC(=N)N)NC(=O)[C@H](CCC(N)=O)NC(=O)[C@@H](NC(=O)[C@H](C)NC(=O)[C@@H]1CSSC[C@H](NC(=O)[C@@H](N)CCCCNC(=O)COCCOCCNC(=O)CC[C@H](NC(=O)CCCCCCCCCCCCCCCCCCC(=O)O)C(=O)O)C(=O)N[C@@H](CC(N)=O)C(=O)N[C@@H]([C@@H](C)O)C(=O)N[C@@H](C)C(=O)N[C@@H]([C@@H](C)O)C(=O)N1)[C@@H](C)O)C(=O)N1CCC[C@H]1C(=O)N[C@@H](CO)C(=O)N[C@@H](CO)C(=O)N[C@H](C(=O)N1CCC[C@H]1C(=O)N[C@H](C(=O)NCC(=O)N[C@@H](CO)C(=O)N[C@@H](CC(N)=O)C(=O)N[C@H](C(=O)N[C@@H](Cc1ccc(O)cc1)C(N)=O)[C@@H](C)O)C(C)C)[C@@H](C)O, analogue of human amylin; also called compound 61)
0.662	K([AEEA-γGlu-C20 diacid])CNTATCATQRLANFLRHSSPNFGAIPSSTNVGPNTY-NH2 (disulfide 2-7; N-terminus assumed; SMILES CC[C@H](C)[C@H](NC(=O)[C@H](C)NC(=O)CNC(=O)[C@H](Cc1ccccc1)NC(=O)[C@H](CC(N)=O)NC(=O)[C@@H]1CCCN1C(=O)[C@H](CO)NC(=O)[C@H](CO)NC(=O)[C@H](Cc1c[nH]cn1)NC(=O)[C@H](CCCNC(=N)N)NC(=O)[C@H](CC(C)C)NC(=O)[C@H](Cc1ccccc1)NC(=O)[C@H](CC(N)=O)NC(=O)[C@H](C)NC(=O)[C@H](CC(C)C)NC(=O)[C@H](CCCNC(=N)N)NC(=O)[C@H](CCC(N)=O)NC(=O)[C@@H](NC(=O)[C@H](C)NC(=O)[C@@H]1CSSC[C@H](NC(=O)[C@@H](N)CCCCNC(=O)COCCOCCNC(=O)CC[C@H](NC(=O)CCCCCCCCCCCCCCCCCCC(=O)O)C(=O)O)C(=O)N[C@@H](CC(N)=O)C(=O)N[C@@H]([C@@H](C)O)C(=O)N[C@@H](C)C(=O)N[C@@H]([C@@H](C)O)C(=O)N1)[C@@H](C)O)C(=O)N1CCC[C@H]1C(=O)N[C@@H](CO)C(=O)N[C@@H](CO)C(=O)N[C@H](C(=O)N[C@@H](CC(N)=O)C(=O)N[C@H](C(=O)NCC(=O)N1CCC[C@H]1C(=O)N[C@@H](CC(N)=O)C(=O)N[C@H](C(=O)N[C@@H](Cc1ccc(O)cc1)C(N)=O)[C@@H](C)O)C(C)C)[C@@H](C)O, analogue of human amylin; also called compound 50)
1.03	K([AEEA-γGlu-C20 diacid])CNTATCATQRLANFLRHSSPNFGAIPSSTNVGPHTY-NH2 (disulfide 2-7; N-terminus assumed; SMILES CC[C@H](C)[C@H](NC(=O)[C@H](C)NC(=O)CNC(=O)[C@H](Cc1ccccc1)NC(=O)[C@H](CC(N)=O)NC(=O)[C@@H]1CCCN1C(=O)[C@H](CO)NC(=O)[C@H](CO)NC(=O)[C@H](Cc1c[nH]cn1)NC(=O)[C@H](CCCNC(=N)N)NC(=O)[C@H](CC(C)C)NC(=O)[C@H](Cc1ccccc1)NC(=O)[C@H](CC(N)=O)NC(=O)[C@H](C)NC(=O)[C@H](CC(C)C)NC(=O)[C@H](CCCNC(=N)N)NC(=O)[C@H](CCC(N)=O)NC(=O)[C@@H](NC(=O)[C@H](C)NC(=O)[C@@H]1CSSC[C@H](NC(=O)[C@@H](N)CCCCNC(=O)COCCOCCNC(=O)CC[C@H](NC(=O)CCCCCCCCCCCCCCCCCCC(=O)O)C(=O)O)C(=O)N[C@@H](CC(N)=O)C(=O)N[C@@H]([C@@H](C)O)C(=O)N[C@@H](C)C(=O)N[C@@H]([C@@H](C)O)C(=O)N1)[C@@H](C)O)C(=O)N1CCC[C@H]1C(=O)N[C@@H](CO)C(=O)N[C@@H](CO)C(=O)N[C@H](C(=O)N[C@@H](CC(N)=O)C(=O)N[C@H](C(=O)NCC(=O)N1CCC[C@H]1C(=O)N[C@@H](Cc1c[nH]cn1)C(=O)N[C@H](C(=O)N[C@@H](Cc1ccc(O)cc1)C(N)=O)[C@@H](C)O)C(C)C)[C@@H](C)O, analogue of human amylin; also called compound 58)
2.39	K([AEEA-γGlu-C20 diacid])CNTATCATQRLANFLRHSSPNFGAIPSSTPVGSNTY-NH2 (disulfide 2-7; N-terminus assumed; SMILES CC[C@H](C)[C@H](NC(=O)[C@H](C)NC(=O)CNC(=O)[C@H](Cc1ccccc1)NC(=O)[C@H](CC(N)=O)NC(=O)[C@@H]1CCCN1C(=O)[C@H](CO)NC(=O)[C@H](CO)NC(=O)[C@H](Cc1c[nH]cn1)NC(=O)[C@H](CCCNC(=N)N)NC(=O)[C@H](CC(C)C)NC(=O)[C@H](Cc1ccccc1)NC(=O)[C@H](CC(N)=O)NC(=O)[C@H](C)NC(=O)[C@H](CC(C)C)NC(=O)[C@H](CCCNC(=N)N)NC(=O)[C@H](CCC(N)=O)NC(=O)[C@@H](NC(=O)[C@H](C)NC(=O)[C@@H]1CSSC[C@H](NC(=O)[C@@H](N)CCCCNC(=O)COCCOCCNC(=O)CC[C@H](NC(=O)CCCCCCCCCCCCCCCCCCC(=O)O)C(=O)O)C(=O)N[C@@H](CC(N)=O)C(=O)N[C@@H]([C@@H](C)O)C(=O)N[C@@H](C)C(=O)N[C@@H]([C@@H](C)O)C(=O)N1)[C@@H](C)O)C(=O)N1CCC[C@H]1C(=O)N[C@@H](CO)C(=O)N[C@@H](CO)C(=O)N[C@H](C(=O)N1CCC[C@H]1C(=O)N[C@H](C(=O)NCC(=O)N[C@@H](CO)C(=O)N[C@@H](CC(N)=O)C(=O)N[C@H](C(=O)N[C@@H](Cc1ccc(O)cc1)C(N)=O)[C@@H](C)O)C(C)C)[C@@H](C)O, analogue of human amylin; also called compound 49)
